Experimental findings from publication PMC7460673, “Biochemical Characterization and Crystal Structure of a Novel NAD^+-Dependent Isocitrate Dehydrogenase from Phaeodactylum tricornutum” (International Journal of Molecular Sciences, 2020) are described below.

The target in series [1] is T1, PtIDH1 (Phaeodactylum tricornutum, UniProt B7G620).
T1 construct: gene IDH1; hexamer also seen; C-terminal EF-hand domain
Put plainly: spectrophotometric NADH formation at […] nm. Format: biochemical. The conditions noted are these: read-out: Relative Activity (%) / PtIDH1.

The target in series [2] is T1, PtIDH1. The experiment in a line: spectrophotometric NADH formation at […] nm. The format is biochemical.
Series [3] has as its target Phaeodactylum tricornutum isocitrate dehydrogenase 1, mature (without mitochondrial-targeting peptide) (Phaeodactylum tricornutum). Put plainly: SEC; Superdex 200 10/300 column calibrated with five standard proteins, 0.5 mL/min; 20 mM Tris, 300 mM NaCl, 5% glycerol, pH 7.5. In general terms: In gel filtration, larger molecules generally elute earlier.
Substrate in series [4]: NC(=O)c1ccc[n+]([C@@H]2O[C@H](COP(=O)([O-])OP(=O)(O)OC[C@H]3O[C@@H](n4cnc5c(N)ncnc54)[C@H](O)[C@@H]3O)[C@@H](O)[C@H]2O)c1
Put plainly: purified protein. Format: biochemical, Phaeodactylum tricornutum. The conditions noted are these: 2 mM Mn2+, DL-isocitrate, 50 mM Tris pH 8.0, 25 °C, varied: cofactor.

Substrate in series [5]: O=C(O)CC(C(=O)O)C(O)C(=O)O
The experiment in a line: purified protein. Format: biochemical, Phaeodactylum tricornutum. The conditions noted are these: 2 mM Mn2+, NAD+, 50 mM Tris pH 8.0, 25 °C, varied as DL-isocitrate, cooperative, nH 1.43.

As a reminder, the Ki is a measure of affinity in units of concentration, obtained from inhibition or displacement. A lower Ki goes with higher affinity. Usually stoichiometry N stands for a count of units in the complex or per binding partner. The term Km denotes the concentration of substrate that gives half-maximal velocity. A word on the kcat: it is the number of substrate molecules converted per active site and unit of time at saturation. A word on the kcat/Km: it is the second-order rate constant that governs catalysis at low substrate concentration.

Several values for one entry are separate records, joined by “and”; a condition that tells them apart may be missing. Identical values can stand only once.

On to `Nc1ncnc2c1ncn2[C@@H]1O[C@H](COP(=O)(O)OP(=O)(O)O)[C@@H](O)[C@H]1O` [ADP], for which the activity at 1000 µM on PtIDH1 [1] was determined as 86.63 ± 0.2%.
Turning to `Nc1ncnc2c1ncn2[C@@H]1O[C@H](COP(=O)(O)OP(=O)(O)OP(=O)(O)O)[C@@H](O)[C@H]1O` [ATP], the activity at 1000 µM on PtIDH1 [1] was found to be 88.7 ± 0.8%.
Consider `NC(=O)C1=CN([C@@H]2O[C@H](COP(=O)(O)OP(=O)(O)OC[C@H]3O[C@@H](n4cnc5c(N)ncnc54)[C@H](O)[C@@H]3O)[C@@H](O)[C@H]2O)C=CC1` [NADH], for which the Ki on PtIDH1 [2] came out at 450 ± 80 µM.
Take “Phaeodactylum tricornutum isocitrate dehydrogenase 1, mature (without mitochondrial-targeting peptide) (enzyme)”: the stoichiometry N in series [3] is 2 and 6.

B1: PtIDH1 (Phaeodactylum tricornutum CCAP 1055/1) (protein)
chain: MLSVENKVVAPPMVYIAGEEMTRYACDLVVKSWLEPYFDLSQWEYFDLSCVNRDNTNDQVLRDAVTAGQRIGAIFKEPTITPSAIQKKAFGLKNSLGSPNGAMRAGWNGITISRDTIHIDGIELGYKRPVFFERHAVGGEYGAGWSKVGRGTLLTTYLPSDGRDPFVVDKRDLTDQHNVVVTYHNPYDNVEPLAHLFFQRCLDANITPYVVTKKTVFKWQEGFWAVMKDVFDEHYKSRFEEKGLLQACGGDLQHLISDAATMQLIRWTDGGFGMAAHNYDGDMLTDQIAQVHRSPGFITSNLVGKAPDGSLIKEFEASHGTVSDLWNDHLAGKETSLNPLGLVEAIVGALQHAAVLDAEKNPDDEHKVKARDQIFNFTTTLRTAMHNTFRYGQGTRDMSGPSGYTTEDFVRKVAWRLQRYLDAQYDEAPPPQLGEPSRKLRRNYDIDEEAINGLFQKYDKNGDGFIDFEEFTRMLVKMNLAPLLTKKEKEKKPDV
notes: hexamer also seen; C-terminal EF-hand domain
As for B1, in “purified protein [4]”, the Km was 1132.5 ± 23.3 µM, the kcat is 180.5 ± 6.8 s⁻¹ and the kcat/Km was 160000 M⁻¹ s⁻¹. Besides, the K0.5 in the series “purified protein [5]” was 84.9 ± 5.2 µM.
